Test: label from the status in PepcDB records

Sequence	protein production
MPYAIDFGTTNTVIARWNEATRQGNLIDLPSLSHPLGDSGPLVPSLLYVENAALGQVAIAREVLDRGRDISTDTRFFKNFKRGIGVAVQGFLPQLDGHTLSLETLGQWYLDKLIRILTEQEGQGPDCLALTVPVDSFESYRHWLSHTCRSWGVEEVRLVDEPTAAALGYGVGDASQILVLDFGGGTVDFSWVQLGDRGQKGRSGFLLKWGGILGGSKAEEKSALAKVLAKAGANLGGSDIDYWISEYFTEAQGLQVSPWIRRLAERLKIALGEAEEATEVYFDDQALESYEFQLRRSDLTEILQQRQFFERLTALWEQVQQTAQRRGLTPANLDAVLVVGGTSQLPMVQDWINAQFPAGKIRNQQPFGAIALGALQIYQGREVQDYLYHSYGVRYWNRRKNSHNWHPIIKNGQTYPMAEPIELTLGASLDNQPSIELIVGELGSSIGATEVYFDGNQLITRVLENQAFTVQPLNDRNGARQIAQLSPPGVPGGDRIKVKFWVDDQRYLRLTVEDLLQQKLLLENQVVAQLRLEHHHHHH	failed
MAYSYTEKKRIRKDFSKLPDVMDVPYLLAIQLDSYREFLQAGATKEQFRDVGLHAAFKSVFPIISYSGNAALEYVGYRLGEPAFDVKECVLRGVTFAVPLRVKVRLIIFDRESSNKAIKDIKEQEVYMGEIPLMTENGTFIINGTERVIVSQLHRSPGVFFDHDRGKTHSSGKLLYSARIIPYRGSWLDFEFDPKDCVFVRIDRRRKLPASVLLRALGYSTEEILNAFYATNVFHIKGETLNLELVPQRLRGEVASIDIKDGSGKVIVEQGRRITARHINQLEKAGVSQLEVPFDYLIGRTIAKAIVHPATGEIIAECNTELTLDLLAKVAKAQVVRIETLYTNDIDCGPFISDTLKIDNTSNQLEALVEIYRMMRPGEPPTKEAAETLFGNLFFSAERYDLSAVGRMKFNRRIGRTEIEGPGVLSKEDIIDVLKTLVDIRNGKGIVDDIDHLGNRRVRCVGEMAENQFRVGLVRVERAVKERLSMAESEGLMPQDLINAKPVAAAIKEFFGSSQLSQFMDQNNPLSEITHKRRVSALGPGGLTRERAGFEVRDVHPTHYGRVCPIETPEGPNIGLINSLATYARTNKYGFLESPYRVVKDSLVTDEIVFLSAIEEADHVIAQASATLNEKGQLVDELVAVRHLNEFTVKAPEDVTLMDVSPKQVVSVAASLIPFLEHDDANRALMGSNMQRQAVPTLRADKPLVGTGMERNVARDSGVCVVARRGGVIDSVDASRVVVRVADDEVETGEAGVDIYNLTKYTRSNQNTCINQRPLVSKGDVVARGDILADGPSTDMGELALGQNMRVAFMPWNGFNFEDSICLSERVVQEDRFTTIHIQELTCVARDTKLGPEEITADIPNVGEAALNKLDEAGIVYVGAEVQAGDILVGKVTPKGETQLTPEEKLLRAIFGEKASDVKDTSLRVPTGTKGTVIDVQVFTRDGVERDSRALSIEKMQLDQIRKDLNEEFRIVEGATFERLRAALVGAKAEGGPALKKGTEITDDYLDGLERGQWFKLRMADDALNEQLEKAQAYISDRRQLLDDKFEDKKRKLQQGDDLAPGVLKIVKVYLAIKRRIQPGDKMAGRHGNKGVVSVIMPVEDMPHDANGTPVDIVLNPLGVPSRMNVGQILETHLGLAAKGLGEKINRMLEEQRKVAELRKFLHEIYNEIGGREENLDELGDNEILALAKNLRGGVPMATPVFDGAKEREIKAMLKLADLPESGQMRLFDGRTGNQFERPTTVGYMYMLKLNHLVDDKMHARSTGSYSLVTQQPLGGKAQFGGQRFGEMEVWALEAYGAAYTLQEMLTVKSDDVNGRTKMYKNIVDGDHRMEAGMPESFNVLIKEIRSLG	failed
MTERPSLSPREARDRYLAHRQTDAADASIKSFRYRLKHFVEWAEERDITAMRELTGWKLDEYETFRRGSDVSPATLNGEMQTLKNWLEYLARIDVVDEDLPEKVHVPTIPDGEESNDEMLEPEAAKKLLRAMRSDPTHYGTVKHALLELLWFTGCRVGAARSLDLRDYHSGERFVTFHHREGTPLKNDSDGERAVGLPEAVCEVLDYYIEHHRESSHDDHGRKPLFTTTQGRASENTARVWTYLATQPCLHGPCPHGKERETCSYLHIHSASKCPSSLSPHRIRTGSITWQRDCGLPAEVVSERVNATLEVIEKHYDQATKRQRLEERRRPYINNLELDLEADS	failed
NLNAIQNFGAMDILCTDKTGTLTCDKIVLEKYINADGSDDNSKRILRHAYFNSYFQTGLRNLMDKAILSHVRELNLEHLKDAYTKVDEIPFDFTRRRMSVVIEDRQGKRQIITKGAVEEILDVCSYAEFDREIHPLTDSLKIKAQKISEEMNRQGMRVLAVSQKSFIEKDCNFAIEDEKEMVLIGYLAFLDP	not failed

— a protein production outcome set (Wang et al. 2014)
